# In patent US20090118184A1 (UNIVERSITY OF ROCHESTER, published 2009):
# Residue numbers refer to the chain shown, from its start. Names may count otherwise.
# T1: factor VIIIa A1/A3C1C2 dimer, wild type (human, UniProt P00451 20-391; P00451 1709-2351)
# T1 sequence 1: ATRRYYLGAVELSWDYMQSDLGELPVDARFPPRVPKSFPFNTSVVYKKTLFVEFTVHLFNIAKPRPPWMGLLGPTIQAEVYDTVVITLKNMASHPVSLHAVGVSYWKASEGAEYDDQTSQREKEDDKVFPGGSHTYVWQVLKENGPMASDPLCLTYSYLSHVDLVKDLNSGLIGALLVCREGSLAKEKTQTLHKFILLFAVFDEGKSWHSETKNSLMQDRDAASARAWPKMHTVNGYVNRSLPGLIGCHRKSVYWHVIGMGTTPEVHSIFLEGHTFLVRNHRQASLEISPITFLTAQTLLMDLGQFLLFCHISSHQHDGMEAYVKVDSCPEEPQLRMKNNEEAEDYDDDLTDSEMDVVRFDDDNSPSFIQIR
# T1 sequence 2: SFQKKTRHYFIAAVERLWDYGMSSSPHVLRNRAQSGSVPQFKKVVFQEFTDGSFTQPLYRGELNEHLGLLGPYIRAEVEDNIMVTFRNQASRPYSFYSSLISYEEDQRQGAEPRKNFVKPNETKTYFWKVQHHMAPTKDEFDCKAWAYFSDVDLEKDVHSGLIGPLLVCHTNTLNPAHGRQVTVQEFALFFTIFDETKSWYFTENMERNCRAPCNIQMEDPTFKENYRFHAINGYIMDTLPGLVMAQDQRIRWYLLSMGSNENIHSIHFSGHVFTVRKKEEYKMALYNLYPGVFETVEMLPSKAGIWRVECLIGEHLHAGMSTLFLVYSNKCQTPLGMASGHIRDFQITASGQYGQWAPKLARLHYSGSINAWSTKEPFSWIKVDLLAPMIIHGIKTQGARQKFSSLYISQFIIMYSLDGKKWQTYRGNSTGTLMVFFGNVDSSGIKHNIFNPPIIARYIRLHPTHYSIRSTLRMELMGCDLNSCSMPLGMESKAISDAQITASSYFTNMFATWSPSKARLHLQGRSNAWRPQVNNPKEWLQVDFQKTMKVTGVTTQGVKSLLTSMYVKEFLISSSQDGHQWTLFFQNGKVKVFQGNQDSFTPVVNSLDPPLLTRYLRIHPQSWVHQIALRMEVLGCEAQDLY
# T2: factor VIIIa A1/A3C1C2 dimer, Glu113Ala (human, UniProt P00451 20-391; P00451 1709-2351)
# T2 chain 1: T1 sequence 1 with E113A
# T2 chain 2: T1 sequence 2
# T3: factor VIIIa A1/A3C1C2 dimer, Glu1984Ala (human, UniProt P00451 20-391; P00451 1709-2351)
# T3 sequence 1: T1 sequence 1
# T3 sequence 2: T1 sequence 2 with E295A
# T4: factor VIIIa A1/A3C1C2 dimer, Glu1984Val (human, UniProt P00451 20-391; P00451 1709-2351)
# T4 sequence 1: T1 sequence 1
# T4 sequence 2: T1 sequence 2 with E295V
# B1: factor VIIIa A2 subunit, Glu665Val (other)
# chain: SVAKKHPKTWVHYIAAEEEDWDYAPLVLAPDDRSYKSQYLNNGPQRIGRKYKKVRFMAYTDETFKTREAIQHESGILGPLLYGEVGDTLLIIFKNQASRPYNIYPHGITDVRPLYSRRLPKGVKHLKDFPILPGEIFKYKWTVTVEDGPTKSDPRCLTRYYSSFVNMERDLASGLIGPLLICYKESVDQRGNQIMSDKRNVILFSVFDENRSWYLTENIQRFLPNPAGVQLEDPEFQASNIMHSINGYVFDSLQLSVCLHEVAYWYILSIGAQTDFLSVFFSGYTFKHKMVYVDTLTLFPFSGETVFMSMENPGLWILGCHNSDFRNRGMTALLKVSSCDKNTGDYYEDSYEDISAYLLSKNNAIEPR
# B2: factor VIIIa A2 subunit, D519V and E665V (other)
# chain: B1 chain with D147V
# B3: factor VIIIa A2 subunit, D519A and E665V (other)
# chain: B1 chain with D147A
# B4: factor VIIIa A2 subunit, D519A and E665A (other)
# chain: B1 chain with D147A, V293A
# B5: factor VIIIa A2 subunit, S524A (other)
# chain: B1 chain with S152A, V293E
# B6: factor VIIIa A2 subunit, R531A (other)
# chain: B1 chain with R159A, V293E
# B7: factor VIIIa A2 subunit, S654A (other)
# chain: B1 chain with S282A, V293E
# B8: factor VIIIa A2 subunit, N684A (other)
# chain: B1 chain with V293E, N312A
# B9: factor VIIIa A2 subunit, D696A (other)
# chain: B1 chain with V293E, D324A
# B10: factor VIIIa A2 subunit, E540A (other)
# chain: B1 chain with E168A, V293E
# B11: factor VIIIa A2 subunit, S650A (other)
# chain: B1 chain with S278A, V293E
# B12: factor VIIIa A2 subunit, Y476F (other)
# chain: B1 chain with Y104F, V293E
# B13: factor VIIIa A2 subunit, D666A (other)
# chain: B1 chain with V293E, D294A
# B14: factor VIIIa A2 subunit, S695A (other)
# chain: B1 chain with V293E, S323A
# B15: factor VIIIa A2 subunit, Y664F (other)
# chain: B1 chain with Y292F, V293E
# B16: factor VIIIa A2 subunit, T522A (other)
# chain: B1 chain with T150A, V293E
# B17: factor VIIIa A2 subunit, N538A (other)
# chain: B1 chain with N166A, V293E
# B18: factor VIIIa A2 subunit, E683A (other)
# chain: B1 chain with V293E, E311A
# Molecular target: T1, factor VIIIa A1/A3C1C2 dimer, wild type
# Assay: cell-based or functional assay
Binder,"Factor VIIIa Decay relative to the WT value, Factor IXa absent","Factor VIIIa Decay relative to the WT value, Factor IXa present","Factor VIIIa Decay, Factor IXa absent [min⁻¹]","Factor VIIIa Decay, Factor IXa present [min⁻¹]"
B1,0.19 relative to WT,0.34 relative to WT,0.016,0.0052

# Molecular target: T2, factor VIIIa A1/A3C1C2 dimer, Glu113Ala
# Assay: cell-based or functional assay
Binder,"Decay rate relative to wild type, Factor VIIIa (1.5 nM, factor IXa absent)","Decay rate, Factor VIIIa (1.5 nM factor VIIIa, factor IXa absent) [min⁻¹]"
B1,0.24 relative to wild type,0.0333

# Molecular target: T3, factor VIIIa A1/A3C1C2 dimer, Glu1984Ala
# Assay: cell-based or functional assay
Binder,"Decay rate relative to wild type, Factor VIIIa (1.5 nM, factor IXa absent)","Decay rate, Factor VIIIa (1.5 nM factor VIIIa, factor IXa absent) [min⁻¹]"
B2,0.1 relative to wild type,0.0142
B1,0.26 relative to wild type,0.036
B3,0.17 relative to wild type,0.0235

# Molecular target: T4, factor VIIIa A1/A3C1C2 dimer, Glu1984Val
# Assay: cell-based or functional assay
Binder,"Decay rate relative to wild type, Factor VIIIa (1.5 nM, factor IXa absent)","Decay rate, Factor VIIIa (1.5 nM factor VIIIa, factor IXa absent) [min⁻¹]"
B2,0.16 relative to wild type,0.0227
B1,0.48 relative to wild type,0.0671

# Molecular target: T1, factor VIIIa A1/A3C1C2 dimer, wild type
# Assay: cell-based or functional assay
# Remark: another data set of the same source
Binder,"Decay rate relative to wild type, Factor VIIIa (1.5 nM, factor IXa absent)","Decay rate, Factor VIIIa (1.5 nM factor VIIIa, factor IXa absent) [min⁻¹]"
B2,0.14 relative to wild type,0.0198
B1,0.28 relative to wild type,0.0395
B3,0.16 relative to wild type,0.0222
B4,0.25 relative to wild type,0.0352

# Molecular target: T1, factor VIIIa A1/A3C1C2 dimer, wild type
# Assay: cell-based or functional assay
# Remark: another data set of the same source
Binder,"Factor VIIIa decay rate relative to wild type, FIXa (+)","Factor VIIIa decay rate relative to wild type, FIXa (-)","Factor VIIIa decay rate, FIXa (+) [min⁻¹]","Factor VIIIa decay rate, FIXa (-) [min⁻¹]"
B5,40.4 relative to wild type,7 relative to wild type,0.455,0.442
B6,6.72 relative to wild type,–,0.0758,–
B7,1.28 relative to wild type,–,0.0145,–
B8,36.3 relative to wild type,18.8 relative to wild type,0.41,1.18
B9,1.05 relative to wild type,–,0.0118,–
B10,0.81 relative to wild type,–,0.0091,–
B11,2.81 relative to wild type,–,0.0317,–
B12,1.23 relative to wild type,–,0.0139,–
B13,4.83 relative to wild type,–,0.0545,–
B14,0.75 relative to wild type,–,0.0085,–
B15,1.31 relative to wild type,–,0.0148,–
B16,2.39 relative to wild type,–,0.027,–
B17,1.28 relative to wild type,–,0.0144,–
B18,2.33 relative to wild type,–,0.0263,–
